Test results published in patent US5456909A, “Glycoform fractions of recombinant soluble complement receptor 1 (sCR1) having extended half-lives in vivo” (T Cell Sciences, Inc., priority 1992, dated 1995).
Where “and” joins values, the source holds several entries; their conditions need not be identical. Equal entries are not always repeated.

Experiments:
[1] = Pharmacokinetic studies 1, 4, 5, 7, 9: iv clearance of 125I-labelled TP10HD preparations in rats; type: in vivo, Sprague-Dawley rats
Experimental: In Studies 1, 2, 4, 5, 7 and 9, Iodination was carried out by the chloramine-T procedure. Sodium phosphate buffer, 0.5M, pH 7.6, 50 μl, was added to 1 mCi of Na-^125 I (New England Nuclear, Boston, Mass.) as supplied. The sample of TP10HD, typically 100 μg in 100 μl (Study 5=69 μg; Study 7=34 μg; Study 9=91 μg), was added followed by 50 μl of a 15 mg/ml solution of freshly prepared chloramine-T. The reaction mixture was vigorously shaken for 60 seconds. Sodium metabisulfite (50 μl, 15 mg/ml) and sodium iodide (100 μl, 10 mg/ml) were successively pipetted into the reaction vial. The reaction mixture was passed onto a PD10 column (Pharmacia Fine Chemicals, Piscataway, N.J.), pre-equilibrated with phosphate buffered saline, pH 7.2-7.4, containing 0.1% bovine serum albumin (Sigma Chemical Company, St. Louis, Mo.). Ten 0.5 ml fractions were collected and 2 μl aliquots were counted directly and after combining with 100 μl of a 0.1% bovine serum albumin solution and 1 ml of 20% trichloroacetic acid. After incubation at 0° C. for 1 hour, the acid-precipitable protein associated radioactivity was collected by centrifugation for 10 minutes at 1000×g and quantitated by scintillation counting. Fractions containing >90% of the total radioactivity in the acid precipitate were pooled for further use.
Study 1: Radioiodinated TP10HD-CX was mixed with purified unlabeled TP10HD-CX to yield a dosing solution suitable for administering a 1 mg/kg total TP10HD dose containing 16-25×10^6 cpm of radiolabeled TP10HD-CX.
Study 4: Radioiodinated TP10HD-CC was mixed with purified unlabeled TP10HD-CC to yield a dosing solution suitable for administering a 1 mg/kg or a 3 mg/kg total TP10HD dose containing ~20×10^6 cpm.
Study 5: Radioiodinated TP10HD-CCW was mixed with purified unlabeled TP10HD-CCW to yield a dosing solution suitable for administering a 1 mg/kg total TP10HD dose containing ~20×10^6 cpm.
Study 7: Radiolabeled TP10HD-CCS was mixed with purified unlabeled TP10HD-CCS to yield a dosing solution suitable for administering a 1 mg/kg total TP10HD dose containing ~20×10^6 cpm.
Study 9: Radioiodinated TP10HD-CXD was mixed with purified unlabeled TP10HD-CXD to yield a dosing solution suitable for administering a 1 mg/kg total TP10HD dose containing ~20~10^6 cpm.
In Studies 1, 4, 5, 7 and 9, test material was injected intravenously (iv) into four Sprague-Dawley rats (2 male, 2 female). Blood samples were obtained from the retroorbital plexus at 1, 3, 5, 10, 20, 30, 45, and 60 minutes post injection, and the radioactivity determined. Additional post infusion blood samples were taken at 2, 3, and 4 hours postinjection (STUDY 4) and at 120 minutes (STUDY 5). The plasma fraction of the remaining blood sample was retained for further analysis.
Plasma samples were analyzed for residual test material by measuring:
(1) total residual radioactivity;
(2) percentage of radiolabeled material precipitated with TCA;
(3) residual acid precipitable radioactivity in the presence of SDS; and
(4) material immunologically identifiable in an enzyme immunoassay as TP10HD.
Radioisotope data was quantitated as total cpm/ml blood or plasma and as the percentage of a theoretical time zero value. Pharmacokinetic half-life was calculated from the radiometric data.
In Study 9, removal of N-linked oligosaccharide chains was performed by n-glycanase digestion, performed according to manufacturer's instructions (Genzyme Corporation, Boston, Mass.). Typically, 58 μg TP10HD-CX was incubated with 10.5 units of n-glycanase for 18 hours, 37° C., in 0.2M sodium phosphate, pH 8.6 buffer.
Precipitation with trichloroacetic acid was performed as follows: Plasma (20 μl) was precipitated by sequential addition of 450μl of 0.13M Tris HCl, 4% SDS, 10% glycerol, pH 6.8 buffer, followed by 30 μl of fetal bovine serum and 500μl of 20% trichloroacetic acid. […]

[2] = Pharmacokinetic studies 6 and 8: iv TP10HD-CCW and TP10HD-CCS in rabbits, radiometric and immunoassay; type: in vivo, Dutch rabbits; settings: 1 mg/kg
Experimental: In Studies 6 and 8, iodination was performed by the iodogen method (Fraker et al., 1978, Biochem Biophys Res Commun 80:849); the average degree of ^125 I substitution was 0.56 atoms/molecule of protein resulting in a specific activity of 22.7 kBq/mg for STUDY 6, and the average degrees of ^125 I substitution was 0.76 atoms/molecule of protein resulting in a specific activity of 29.5 kBq/mg for STUDY 8.
Studies 6 and 8: As described in STUDY 2 except that the radioiodinated TP10HD-CCW was added to ~1% w/w.
In Studies 6 and 8, test material was injected iv into a group of 5 Dutch rabbits (approximately 1 kg) at a dose of 1 mg/kg. Blood samples, 1 ml, were taken from an ear artery immediately predosing and at 5, 10, 20, 30, 60, 120 and 180 minutes, mixed with heparin, and radioactivity determined in an aliquot by scintillation counting after precipitation with trichloroacetic acid.
Plasma samples were analyzed for residual test material by an enzyme immunoassay (EIA) specific for TP10HD. Pharmacokinetic half-life was calculated from both the radiometric and immunoassay data.
Precipitation with trichloroacetic acid was performed as follows: Plasma (20 μl) was precipitated by sequential addition of 450μl of 0.13M Tris HCl, 4% SDS, 10% glycerol, pH 6.8 buffer, followed by 30 μl of fetal bovine serum and 500μl of 20% trichloroacetic acid. After each addition, the tubes were vigorously mixed and incubated for […] at 4° C.; the pellets of precipitable protein were collected by centrifugation at 1000×g for 10 minutes, the supernatants removed and discarded, and the residual radioactivity measured by scintillation counting.
A commercially available assay was utilized (Cellfree® CD35, T Cell Diagnostics, Inc. Cambridge, Mass.). In brief, polystyrene beads coated with polyclonal rabbit anti-TP10HD antibodies were simultaneously incubated with the diluted test sample and a horse radish peroxidase-conjugated polyclonal rabbit anti-TP10HD antibody. Following incubation, the beads were removed from the reaction mixture, washed of nonspecifically bound material, and subsequently incubated in the presence of an appropriate dilution of substrate. Color development was terminated by the addition of sulfuric acid and the absorbance (optical density) determined as a measure of TP10HD concentration.

[3] = test system: complement-mediated lysis of antibody coated SRBC; assay: Inhibition of complement-mediated hemolysis of antibody-sensitized SRBC in vitro; type: cell-based, human; settings: for IH50 (concentration giving 50% inhibition of hemolysis): SRBC, human serum as complement source; for antihemolytic potency comparison, in words: in vitro
Experimental: SRBC presensitized with rabbit anti-SRBC antibody (Diamedix, Miami, Fla.) were mixed in a V-bottom microtiter wells (Costar, Cambridge, Mass.) with an appropriate dilution of the test plasma and an aliquot of diluted human serum as a complement source. After incubation, 37° C., 1 hour, the unlysed red cells were pelleted by centrifugation, the supernatant transferred to corresponding flat bottom microwells (Costar, Cambridge, Mass.), and absorbance at 415 nm measured. Inhibition of complement-mediated lysis of the antibody coated SRBC was measured as a reduction in the absorbance in the presence of test sample.
A range of dilutions of TP10HD or TP10HD glycoform spanning 7.8 to 1000 ng/ml was examined for each sample.

[4] = Pharmacokinetic study 3: iv TP10HD-CC in pigs, residual functional activity by hemolysis inhibition with pig complement; type: in vivo; settings: 1 mg/kg
Experimental: Study 3: TP10HD-CC was administered as supplied to a final dose of 1 mg/kg.
In Study 3, test material was injected iv through a jugular vein cannula into piglets ranging in weight from 4.5 to 6.1 kg. Blood samples were taken via a previously implanted jugular vein cannula into syringes containing lithium heparin at a final concentration of 15 units/ml. A preinfusion sample, 10 ml, was taken at zero time and postinfusion samples, 1.0 ml, were taken at 5, 10, 15, 30, 45, 60, 120, 180, 240, 300, 360 minutes and 24 hours. Anticoagulated blood samples were centrifuged at ~3000 rpm, 4° C., 5 minutes and the platelet-poor plasma was aliquotted and stored at or below -70° C.
Plasma samples were analyzed for residual test material by an in vitro functional assay, as above, using pig rather than human complement. Pharmacokinetic half-life was calculated from the titer of the residual functional activity.
Prior to infusion with TP10HD-CC, plasma was collected from each pig to be used as a sample diluent and complement source for the hemolysis assay. Test samples were diluted a minimum of 1:50 with 0.1M Hepes, 0.15M NaCl, pH 7.4 buffer. For greater dilution, test samples were diluted with preinfusion plasma already diluted 1:50 in the same buffer, thereby maintaining the final plasma concentration at 1:50. At this dilution, the degree of hemolysis was equivalent to hemolysis with human complement, as described above. Other manipulations were as described above. Standard curves with known quantities of TP10HD can be used to calibrate the assay so that results can be expressed as μg/ml TP10HD remaining in the plasma versus time.
The pharmacokinetic parameters for clearance rate, compartment volume, rate constants and half-life were obtained by fitting the data for each pig to two and three compartment models. […] These phases represent 69% and 31% respectively of the given dose such that approximately one-third of the dose was cleared slowly.

[5] = Isoelectric point by chromatofocusing (Mono P, pH 7.1 to 4.0); type: physicochemical
Experimental: Chromatofocusing is a method of separating isoforms of proteins according to their isoelectric point, pI, using an ion exchange column and a pH gradient created with amphoteric buffers of different pH. In this study, analysis of the TP10HD preparations was performed using a pH gradient of 7.1 to 4.0. The chromatographic resin was Mono P, Hr5/5 (Pharmacia Fine Chemicals, Piscataway, N.J.); the starting buffer was 0.025M Bis/Tris titrated to pH 7.1 with saturated iminodiacetic acid; the eluant was polybuffer 7-4 (Pharmacia Fine Chemicals, Piscataway, N.J.) diluted 1:10 (v/v) with water and adjusted to pH 4.0 with HCl; cleaning buffer was 2M NaCl in water. The experimental conditions were chosen to yield a linear pH gradient of 7.1 to 4.0 units.

Substance | α phase half-life ([1]; 1 mg/kg) [h] | β phase half-life ([1]; 1 mg/kg) [h] | % dose cleared, α-phase ([2]; immunoassay data) [%] | % dose cleared, β-phase ([2]; immunoassay data) [%] | Serum half-life, α-phase ([2]; immunoassay data) [h] | Serum half-life, β-phase ([2]; immunoassay data) [h] | Total Clearance ([2]; immunoassay data) [mL/min/kg] | % dose cleared, β-phase ([2]; radiometric data) | Peak (t = O) concentration ([2]; radiometric data) [µg/mL] | Serum half-life, β-phase ([2]; radiometric data) | Total Clearance ([2]; radiometric data) | Volume of Distribution, α-phase ([2]; radiometric data) [L/kg] | Volume of Distribution, β-phase ([2]; radiometric data) | IH50 (concentration giving 50% inhibition of hemolysis) [3] | antihemolytic potency comparison, in words [3] | further results
TP10HD-CCW: the weakly cationic form of TP10HD-CC isolated by preparative HPLC cation exchange chromatography | 0.2035 | 1.67 | 30 | 70 | 0.233 | 6.27 | 0.1 | 69.1 ± 1.9% and ~70% | 17.8 ± 0.3 | 3.6 h and 3.61 ± 0.313 h | 0.26 ± 0.02 mL/min/kg and 0.26 mL/min/kg | 0.0562 ± 0.001 | 22.6 ± 1.9 ml/kg and ~ 23 ml/kg | 44 ng/mL | no basis for concluding that TP10HD-CC, TP10HD-CCW and TP10HD-CCS differ in their potency | –
TP10HD-CC: TP10HD produced by cells cultured in a fluidized bed perfusion bioreactor and purified by combination chromatography | 0.153 | 3.018 | – | – | – | – | – | – | – | – | – | – | – | about 50±3 ng/ml | no basis for concluding that TP10HD-CC, TP10HD-CCW and TP10HD-CCS differ in their potency | α phase half-life ([1]; 3 mg/kg): 0.163 h; β phase half-life ([1]; 3 mg/kg): 4.452 h; % of given dose represented by α-phase [4]: 69%; % of given dose represented by β-phase [4]: 31%; Peak (t = O) concentration [4]: 29.3 µg/mL; Total Clearance [4]: 0.24 mL/min/kg; Volume of Distribution, α-phase [4]: 0.036 L/kg; Volume of Distribution, β-phase [4]: 0.073 L/kg; plasma level 24 hours after dosing ([4]; 24 hours): not distinguishable from control levels; Serum half-life, α-phase ([4]; mean of 8 animals): 8.3 min; Serum half-life, β-phase ([4]; mean of 8 animals): 6 h and 6.05 h; mean half-life, β-phase ([4]; two-compartment model): 6 h; potency relative to the strongly cationic glycoform (fold lower) ([3]; from IH50 of TP10HD-CX and TP10HD-CC): approximately 2 fold; pI of dominant isoforms ([5]; chromatofocusing): 5.1 and 4.8; pI of minor isoforms ([5]; chromatofocusing, smaller quantities / minor component): 5.7; proportion of preparation with pI <4.9 ([5]; peak integration): approximately 40%
TP10HD-CCS: the strongly cationic form of TP10HD-CC isolated by preparative HPLC cation exchange chromatography | 0.111 | 2.22 | 73 | 27 | 0.167 | 1.27 | 1.24 | 25.5 ± 1.5% and ~25% | 14.6 ± 1.0 | 3.6 h and 3.608 ± 0.613 h | 0.85 ± 0.12 mL/min/kg and 0.85 mL/min/kg | 0.0698 ± 0.0048 | 162.0 ± 13.9 ml/kg and ~ 162 ml/kg | ~27 ng/mL | no basis for concluding that TP10HD-CC, TP10HD-CCW and TP10HD-CCS differ in their potency | –
